In US20060159695A1 (published 2006):
Residue numbers refer to the chain shown, from its start.

B1: Fab 007 (Fab, V domains shown)
VH: not shown
VL: DIVMTQSPDSLAVSLGERATINCRASQSVDLFGKSYMHWYQQKPGQPPKLLIYAASNPESGVPDRFSGSGSGTDFTLTISSLQAEDVAVYYCQQIIDDPWTFGQGTKVEIK
B2: Fab 022 (Fab, V domains shown)
VH: not shown
VL: B1 VL with K34T
B3: Fab 011 (Fab, V domains shown)
VH: not shown
VL: B1 VL with Q27D, K34Q
B4: Fab 017 (Fab, V domains shown)
VH: not shown
VL: B1 VL with Q27D, L31Y, K34Q
B5: Fab 019 (Fab, V domains shown)
VH: not shown
VL: B1 VL with Q27D, K34Q
B6: Fab 013 (Fab, V domains shown)
VH: not shown
VL: B1 VL with Q27D, K34Q
B7: Fab 025 (Fab, V domains shown)
VH: not shown
VL: B1 VL
B8: Fab 029 (Fab, V domains shown)
VH: not shown
VL: B1 VL with Q27D, L31Y, K34V
B9: Fab 030 (Fab, V domains shown)
VH: not shown
VL: B1 VL with L31Y, F32L
B10: Fab 028 (Fab, V domains shown)
VH: not shown
VL: B1 VL with Q27D, K34V, D97E
B11: Fab 014 (Fab, V domains shown)
VH: not shown
VL: B1 VL with Q27D, K34V
B12: Fab 008 (Fab, V domains shown)
VH: not shown
VL: B1 VL with Q27D
B13: Fab 024 (Fab, V domains shown)
VH: not shown
VL: B1 VL with Q27D, K34T
B14: Fab 009 (Fab, V domains shown)
VH: not shown
VL: B1 VL with Q27D, K34R
B15: Fab 026 (Fab, V domains shown)
VH: not shown
VL: B1 VL with Q27D, L31F
B16: Fab 032 (Fab, V domains shown)
VH: not shown
VL: B1 VL with Q27D, L31Y, K34R
B17: Fab 015 (Fab, V domains shown)
VH: not shown
VL: B1 VL with L31F, K34T
B18: Fab 016 (Fab, V domains shown)
VH: not shown
VL: B1 VL with L31Y, K34V
B19: Fab 012 (Fab, V domains shown)
VH: not shown
VL: B1 VL
B20: Fab 010 (Fab, V domains shown)
VH: not shown
VL: B1 VL with Q27D, K34R
B21: Fab 018 (Fab, V domains shown)
VH: not shown
VL: B1 VL with Q27D, K34Q, D97E
B22: Fab A10 (Fab, V domains shown)
VH: not shown
VL: B1 VL with F32L, K34G, D97E

target: RSV F protein on human RSV virus (Long strain) (human RSV, Long strain, UniProt P12568 26-574); test: cell-based or functional assay

Binder	Viral Neut (fold increase over wild-type B23 Fab) [fold]
B1	5
B2	22
B3	> 23
B4	> 23
B5	> 23
B6	13
B7	20
B8	> 23
B9	18
B10	18
B11	< 1
B12	15
B13	> 23
B14	19
B15	20
B16	> 23
B17	8
B18	10
B19	11
B20	18

target: T1, soluble, extracellular domain of recombinantly expressed RSV F protein (human RSV); test: SPR (Biacore), Fab over captured biotinylated RSV-F;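 as to Kd: purified Fabs injected at a single concentration, reference surface subtracted, rate constants from a one-to-one binding model fit, Kd computed as koff divided by kon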;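 as to koff: purified Fabs injected at a single concentration, reference surface subtracted, rate constants from a one-to-one binding model fit, Kd computed as koff divided by kon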;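 as to kon: purified Fabs injected at a single concentration, reference surface subtracted, rate constants from a one-to-one binding model fit, Kd computed as koff divided by kon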
T1 construct: extracellular domain; also called recombinant RSV F protein; recombinant RSV-F
T1 sequence (P12568 26-109, chain 1 of 2): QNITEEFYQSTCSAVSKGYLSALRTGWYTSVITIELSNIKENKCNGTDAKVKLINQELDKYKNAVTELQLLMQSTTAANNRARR
T1 sequence (P12568 137-524, chain 2 of 2): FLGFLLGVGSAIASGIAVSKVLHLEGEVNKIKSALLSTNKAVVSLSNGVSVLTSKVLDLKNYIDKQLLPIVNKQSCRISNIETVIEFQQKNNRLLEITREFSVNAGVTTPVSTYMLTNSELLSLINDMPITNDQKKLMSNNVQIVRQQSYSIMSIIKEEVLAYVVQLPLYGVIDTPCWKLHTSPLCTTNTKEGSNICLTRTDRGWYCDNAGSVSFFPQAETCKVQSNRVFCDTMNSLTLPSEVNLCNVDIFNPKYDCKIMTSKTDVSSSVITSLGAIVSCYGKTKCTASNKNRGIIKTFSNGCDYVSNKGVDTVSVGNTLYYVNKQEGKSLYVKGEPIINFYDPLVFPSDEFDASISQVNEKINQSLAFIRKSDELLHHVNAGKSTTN

Binder	fold decrease in binding dissociation constant (Kd) relative to A7 [fold]
B14	~4

target: T1, soluble, extracellular domain of …; test: as above; remark: another data set of the same source

Binder	Kd [nM]	koff [s⁻¹]	kon [M⁻¹ s⁻¹]
B1	0.058	0.00019	3.3e+06
B2	0.025	5.4e-05	2.16e+06
B3	0.007	2.7e-05	4e+06
B4	0.054	8.1e-05	1.5e+06
B5	0.0135	4.5e-05	3.34e+06
B6	0.058	0.00021	3.6e+06
B7	0.018	4.6e-05	2.52e+06
B8	0.009	4e-05	4.58e+06
B9	0.073	7.5e-05	1.03e+06
B10	0.02	8.6e-05	4.2e+06
B21	0.055	8.8e-05	1.6e+06
B11	0.184	7e-05	380000
B12	0.133	0.00028	2.1e+06
B13	0.002	7e-06	3.14e+06
B14	0.028	7.9e-05	2.8e+06
B15	0.028	6.6e-05	2.39e+06
B16	0.039	3.6e-05	930000
B17	0.016	7.8e-05	5e+06
B18	0.09	9e-05	1e+06
B19	0.005	1.5e-05	3e+06
B20	0.047	0.00018	3.8e+06
B22	0.175	0.000147	850000
